Consider 4 molecules from publication PMC12802916.

Residue numbers refer to the chain shown, from its start.

The data set deals with T1, ST2/IL-33R Fc chimera (Mus musculus, UniProt P14719 27-332).
T1 sequence: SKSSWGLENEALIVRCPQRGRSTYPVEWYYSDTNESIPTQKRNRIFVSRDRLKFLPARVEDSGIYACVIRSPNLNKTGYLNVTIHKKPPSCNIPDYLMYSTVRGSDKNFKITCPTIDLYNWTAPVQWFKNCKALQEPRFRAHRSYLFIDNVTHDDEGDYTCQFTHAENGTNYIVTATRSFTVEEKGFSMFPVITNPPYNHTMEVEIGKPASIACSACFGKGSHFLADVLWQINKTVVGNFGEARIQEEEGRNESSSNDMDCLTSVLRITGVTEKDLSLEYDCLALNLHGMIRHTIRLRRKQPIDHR
Kind of data set: SPR; SPR (Biacore T200): 295 mM NaCl, 5.4 mM KCl, 0.8 mM MgCl2, 18 mM CaCl2 (printed CaClCl2), 0.05% Tween 20, 20 mM Tris-HCl pH 7.6; temperature not stated. A/C: po. Background: Surface plasmon resonance follows binding to a sensor surface in real time, without labels.

B1: B RaptScore round6 2 (ssRNA)
RNA: GGGAGAACUUCGACUUGUAACAAGCUGUUUUGGAACAGCGCAUAACGAACCGUGCAGAGAUCCUC
Turning to B1, the binding signal is -4.91 % of B Round7 3.

B2: B RaptScore round6 3 (ssRNA)
RNA: B1 RNA with C50A
On to B2, for which the binding signal is -3.28 % of B Round7 3.

B3: B RaptScore round7 1 (ssRNA)
RNA: B1 RNA with A49U
As for B3, the binding signal is -4.12 % of B Round7 3.

B4: B RaptScore round7 3 (ssRNA)
RNA: B1 RNA with A49U, C50U
B4: the binding signal is -0.82 % of B Round7 3.
